# Laboratory results from US7038112B2, “Fatty acid elongases” (Miami University, priority 1997, dated 2006).
# Read-outs that look alike come from different tables or passages of the source.
# What was measured:
# [1] = In vitro fatty acid elongation assay with yeast microsomes, 18:0 acyl-CoA substrate; type: biochemical, Saccharomyces cerevisiae; conditions: for (%) 20:0 acyl CoA / (%) 22:0 acyl CoA / (%) 24:0 acyl CoA / (%) 26:0 acyl CoA / (%) Total / Rate, 20:0 acyl CoA / Rate, 22:0 acyl CoA / Rate, 24:0 acyl CoA / Rate, 26:0 acyl CoA / Rate, Total: second experiment
# Protocol: (§1) Transformed yeast cells were grown in the presence of either glucose or galactose (2% w/v) as described in Example 1. Cells were harvested by centrifugation at 5000×g for 10 min and washed with 10 ml ice cold isolation buffer (IB), which contains 80 mM Hepes-KOH, pH 7.2, 5 mM EGTA, 5 mM EDTA, 10 mM KC1, 320 mM sucrose and 2 mM DTT). Cells were then resuspended in enough IB to fill a 1.7 ml tube containing 700 μl of 0.5 μm glass beads and yeast microsomes were isolated from the cells essentially as described in Tillman, T. and Bell, R., J. Biol. Chem. 261:9144–9149 (1986). The microsomal membrane pellet was recovered by centrifugation at 252,000×g for 60 min. The pellet was rinsed by resuspending in 40 ml fresh IB and again recovered by centrifugation at 252000×g for 60 min. Microsomal pellets were resuspended in a minimal volume of IB, and the protein concentration adjusted to 2.5 μg μl^−1 by addition of IB containing 15% glycerol. Microsomes were frozen on dry ice and stored at −80° C. The protein concentration in microsomes was determined by the Bradford method (Bradford, 1976).
# (§2) Fatty acid elongase activity was measured essentially as described in Hlousek-Radojcic, A. et al., Plant J. 8:803–809 (1995). Briefly, the standard elongation reaction mix contained 80 mM Hepes-KOH, pH 7.2, 20 mM MgCl2, 500 μM NADPH, 1 mM ATP, 100 μM malonyl-CoA, 10 μM CoA-SH and 15 μM radioactive acyl-CoA substrate. The radiolabeled substrate was either [1^−14C]18:1-CoA (50 uCi μmol^−1), [1^−14C]18:0-CoA (55 uCi μmol^−1), or [1^−14C]16:0-CoA (54 uCi μmol^−1). The reaction was initiated by the addition of yeast microsomes (5 μg protein) and the mixture incubated at 30° C. for the indicated period of time. The final reaction volume was 25 μl.
# (§3) Methyl esters of the acyl-CoA elongation products were prepared as described in Example 1. Methyl esters were separated on reversed phase silica gel KC18 TLC plates (Whatman, […] thick), quantified by phosphorimaging, and analyzed on by ImageQuant software (Molecular Dynamics, Inc., Sunnyvale, Calif.). The detection limit for each product is about 0.001 nanomoles per min. per mg microsomal protein, depending on the phosphorimage exposure time.
# (§4) Yeast cultures containing full-length EL1 in λYES and full-length EL2 in pYEUra3 were grown in the presence of galactose or glucose as described in Example 2. Microsomes were then prepared from each of the cultures and fatty acid elongation assays were carried out as described in Example 2.
# (§5) In the first experiment, microsomes were prepared from galactose-induced cultures of EL1, EL2 and FAE1, and incubated with either [1-^14C] 18:0 acyl-CoA or [1-^14C] 18:1 acyl-CoA as substrate. The amounts of various reaction products synthesized after 30 minutes (min) were determined as described in Example 2.
# In a second experiment, microsomes were prepared from galactose-induced and from glucose-repressed yeast cultures containing EL1 or EL2 coding sequences. The microsomal preparations were incubated with either 18:0 acyl-CoA or 18:1 acyl-CoA as substrate and the fatty acid reaction products determined as described above. […]
# [2] = type: biochemical, Saccharomyces cerevisiae; conditions: for (%) 20:1 acyl CoA / (%) 22:1 acyl CoA / (%) 24:1 acyl CoA / (%) 26:1 acyl CoA / (%) Total / Rate, 20:1 acyl CoA / Rate, 22:1 acyl CoA / Rate, 24:1 acyl CoA / Rate, 26:1 acyl CoA / Rate, Total: second experiment
# Protocol: as §1, §2, §3, §4, §5
# In a second experiment, microsomes were prepared from galactose-induced and from glucose-repressed yeast cultures containing EL1 or EL2 coding sequences. The microsomal preparations were incubated with either 18:0 acyl-CoA or 18:1 acyl-CoA as substrate and the fatty acid reaction products determined as described above.
# [3] = 18:0-CoA substrate, +Galactose (induced)
# [4] = 18:0-CoA substrate, +Glucose (uninduced)
# [5] = 18:0-CoA substrate, galactose-induced, 30 min, first experiment
# [6] = +Gal, standard reaction mix, average of two experiments
# [7] = +Glu, standard reaction mix, one experiment
# [8] = galactose-induced, −A&C (ATP and Coenzyme A omitted), average of two experiments
# [9] = galactose-induced, −ATP, average of two experiments
# [10] = galactose-induced, −CoA, average of two experiments
# [11] = 18:1-CoA substrate, +Galactose (induced)
# [12] = 18:1-CoA substrate, +Glucose (uninduced)
# [13] = 18:1-CoA substrate, galactose-induced, 30 min, first experiment
molecule,measurement,setting,value
"EL2: Arabidopsis β-keto acyl synthase gene product (SEQ ID NO:4) expressed in yeast microsomes (protein, listed as Arabidopsis thaliana) MDYPMKKVKIFFNYLMAHRFKLCFLPLMVAIAVEASRLSTQDLQNFYLYLQNNHTSLTMFFLYLALGSTLYLMTRPKPVYLVDFSCYLPPSHLKASTQRIMQHVRLVREAGAWKQESDYLMDFCEKILERSGLGQETYVPEGLQTLPLQQNLAVSRIETEEVIIGAVDNLFRNTGISPSDIGILVVNSSTFNPTPSLSSILVNKFKLRDNIKSLNLGGMGCSAGVIAIDAAKSLLQVHRNTYALVVSTENITQNLYMGNNKSMLVTNCLFRIGGAAILLSNRSIDRKRAKYELVHTVRVHTGADDRSYECATQEEDEDGIVGVSLSKNLPMVAARTLKINIATLGPLVLPISEKFHFFVRFVKKKFLNPKLKHYIPDFKLAFEHFCIHAGGRALIDEMEKNLHLTPLDVEASRMTLHRFGNTSSSSIWYELAYTEAKGRMTKGDRIWQIALGSGFKCNSSVWVALRNVKPSTNNPWEQCLHKYPVEIDIDLKE",(%) 20:0 acyl CoA,[1]; [3],43.1%
same,(%) 22:0 acyl CoA,[1]; [3],17.8%
same,(%) 24:0 acyl CoA,[1]; [3],19.1%
same,(%) 26:0 acyl CoA,[1]; [3],20.0%
same,(%) Total,[1]; [3],100.0%
same,"Rate, 20:0 acyl CoA",[1]; [3],0.107 Nanomoles/minute/mg of microsomal protein
same,"Rate, 22:0 acyl CoA",[1]; [3],0.044 Nanomoles/minute/mg of microsomal protein
same,"Rate, 24:0 acyl CoA",[1]; [3],0.048 Nanomoles/minute/mg of microsomal protein
same,"Rate, 26:0 acyl CoA",[1]; [3],0.050 Nanomoles/minute/mg of microsomal protein
same,"Rate, Total",[1]; [3],0.249 Nanomoles/minute/mg of microsomal protein
same,(%) 20:0 acyl CoA,[1]; [4],81.3%
same,(%) 22:0 acyl CoA,[1]; [4],5.1%
same,(%) 24:0 acyl CoA,[1]; [4],13.6%
same,(%) 26:0 acyl CoA,[1]; [4],0.0%
same,(%) Total,[1]; [4],100.0%
same,"Rate, 20:0 acyl CoA",[1]; [4],0.030 Nanomoles/minute/mg of microsomal protein
same,"Rate, 22:0 acyl CoA",[1]; [4],0.002 Nanomoles/minute/mg of microsomal protein
same,"Rate, 24:0 acyl CoA",[1]; [4],0.005 Nanomoles/minute/mg of microsomal protein
same,"Rate, 26:0 acyl CoA",[1]; [4],0.000 Nanomoles/minute/mg of microsomal protein
same,"Rate, Total",[1]; [4],0.037 Nanomoles/minute/mg of microsomal protein
same,effect of omission of ATP and/or CoA on overall amounts of VLCFAs synthesized,"[1]; 18:0-CoA substrate, galactose-induced",does not have a significant effect
same,(%) 20:0 acyl-CoA product,[1]; [5],41.8%
same,(%) 22:0 acyl-CoA product,[1]; [5],20.7%
same,(%) 24:0 acyl-CoA product,[1]; [5],20.3%
same,(%) 26:0 acyl-CoA product,[1]; [5],17.2%
same,(%) Total acyl-CoA products,[1]; [5],100.0%
same,"Rate, 20:0 acyl-CoA product",[1]; [5],0.108 Nanomoles/minute/mg of microsomal protein
same,"Rate, 22:0 acyl-CoA product",[1]; [5],0.053 Nanomoles/minute/mg of microsomal protein
same,"Rate, 24:0 acyl-CoA product",[1]; [5],0.052 Nanomoles/minute/mg of microsomal protein
same,"Rate, 26:0 acyl-CoA product",[1]; [5],0.044 Nanomoles/minute/mg of microsomal protein
same,"Rate, Total acyl-CoA products",[1]; [5],0.258 Nanomoles/minute/mg of microsomal protein
same,20:0 product as a percent of total products formed,[1]; [6],47.1%
same,22:0 product as a percent of total products formed,[1]; [6],19.1%
same,24:0 product as a percent of total products formed,[1]; [6],19.4%
same,26:0 product as a percent of total products formed,[1]; [6],14.5%
same,Total products as a percent of total products formed,[1]; [6],100.0%
same,20:0 product as a percent of total products formed,[1]; [7],54.5%
same,22:0 product as a percent of total products formed,[1]; [7],17.1%
same,24:0 product as a percent of total products formed,[1]; [7],5.8%
same,26:0 product as a percent of total products formed,[1]; [7],22.6%
same,Total products as a percent of total products formed,[1]; [7],100.0%
same,"increase in overall elongase activity on induction with galactose, 18:0 acyl CoA substrate",[1]; galactose-induced vs glucose,~7 fold
same,20:0 product as a percent of total products formed,[1]; [8],38.0%
same,22:0 product as a percent of total products formed,[1]; [8],15.9%
same,24:0 product as a percent of total products formed,[1]; [8],18.4%
same,26:0 product as a percent of total products formed,[1]; [8],27.8%
same,Total products as a percent of total products formed,[1]; [8],100.0%
same,20:0 product as a percent of total products formed,[1]; [9],34.1%
same,22:0 product as a percent of total products formed,[1]; [9],16.4%
same,24:0 product as a percent of total products formed,[1]; [9],20.8%
same,26:0 product as a percent of total products formed,[1]; [9],28.9%
same,Total products as a percent of total products formed,[1]; [9],100.0%
same,20:0 product as a percent of total products formed,[1]; [10],45.3%
same,22:0 product as a percent of total products formed,[1]; [10],19.2%
same,24:0 product as a percent of total products formed,[1]; [10],19.9%
same,26:0 product as a percent of total products formed,[1]; [10],15.8%
same,Total products as a percent of total products formed,[1]; [10],100.0%
same,"18:0-CoA elongation activity, +Glu","[1]; microsomes from glucose-grown cultures, standard reaction mix",.033 nanomoles/minute/mg of microsomal protein
same,"increase in 18:1 CoA elongation, microsomes from induced vs uninduced cells",[2],~2 fold
same,(%) 20:1 acyl CoA,[2]; [11],100.0%
same,(%) 22:1 acyl CoA,[2]; [11],0.0%
same,(%) 24:1 acyl CoA,[2]; [11],0.0%
same,(%) 26:1 acyl CoA,[2]; [11],0.0%
same,(%) Total,[2]; [11],100.0%
same,"Rate, 20:1 acyl CoA",[2]; [11],0.089 Nanomoles/minute/mg of microsomal protein
same,"Rate, 22:1 acyl CoA",[2]; [11],0.000 Nanomoles/minute/mg of microsomal protein
same,"Rate, 24:1 acyl CoA",[2]; [11],0.000 Nanomoles/minute/mg of microsomal protein
same,"Rate, 26:1 acyl CoA",[2]; [11],0.000 Nanomoles/minute/mg of microsomal protein
same,"Rate, Total",[2]; [11],0.089 Nanomoles/minute/mg of microsomal protein
same,(%) 20:1 acyl CoA,[2]; [12],100.0%
same,(%) 22:1 acyl CoA,[2]; [12],0.0%
same,(%) 24:1 acyl CoA,[2]; [12],0.0%
same,(%) 26:1 acyl CoA,[2]; [12],0.0%
same,(%) Total,[2]; [12],100.0%
same,"Rate, 20:1 acyl CoA",[2]; [12],0.043 Nanomoles/minute/mg of microsomal protein
same,"Rate, 22:1 acyl CoA",[2]; [12],0.000 Nanomoles/minute/mg of microsomal protein
same,"Rate, 24:1 acyl CoA",[2]; [12],0.000 Nanomoles/minute/mg of microsomal protein
same,"Rate, 26:1 acyl CoA",[2]; [12],0.000 Nanomoles/minute/mg of microsomal protein
same,"Rate, Total",[2]; [12],0.043 Nanomoles/minute/mg of microsomal protein
same,(%) 20:1 acyl-CoA product,[2]; [13],84.1%
same,(%) 22:1 acyl-CoA product,[2]; [13],15.9%
same,(%) 24:1 acyl-CoA product,[2]; [13],0.0%
same,(%) 26:1 acyl-CoA product,[2]; [13],0.0%
same,(%) Total acyl-CoA products,[2]; [13],100.0%
same,"Rate, 20:1 acyl-CoA product",[2]; [13],0.091 Nanomoles/minute/mg of microsomal protein
same,"Rate, 22:1 acyl-CoA product",[2]; [13],0.017 Nanomoles/minute/mg of microsomal protein
same,"Rate, 24:1 acyl-CoA product",[2]; [13],0.0 Nanomoles/minute/mg of microsomal protein
same,"Rate, 26:1 acyl-CoA product",[2]; [13],0.0 Nanomoles/minute/mg of microsomal protein
same,"Rate, Total acyl-CoA products",[2]; [13],0.108 Nanomoles/minute/mg of microsomal protein
